In publication PMC3082930:
Each block holds one substance with its values, some of them ahead of it.

Assays:
[1] = molecular target: Gln-Lys-Gln-Gln tetrameric Kv2.1 construct (rat); assay: TIRF single-particle photobleaching step counting
[2] = molecular target: Gln-Lys-Lys-Gln tetrameric Kv2.1 construct (rat); assay: TIRF single-particle photobleaching step counting
[3] = molecular target: Lys-Gln-Gln-Gln tetrameric Kv2.1 construct (rat); assay: TIRF single-particle photobleaching step counting
CFP-Kv2.1-K470Q (rat) = assay: FRET or BRET
GFP-Kv2.1-K470Q (rat) = assay: TIRF single-particle photobleaching step counting
CFP-Kv2.1 (rat) = CFP-Kv2.1 (rat) (UniProt P15387); assay: FRET or BRET

- stoichiometry N [1]: 1
- stoichiometry N [2]: 1
- stoichiometry N [3]: 1
Substance: GFP-SUMO1_(101) (from UniProt P63165 1-101) (natural protein)

- CFP donor photobleaching decay time constant (tau) (CFP-Kv2.1-K470Q (rat)): 26.2 s
Substance: YFP-Kv2.1-K470Q (natural protein)

- stoichiometry N (GFP-Kv2.1-K470Q (rat)): 4
Substance: GFP-Kv2.1-K470Q (natural protein)

- CFP donor photobleaching decay time constant (tau) (CFP-Kv2.1 (rat)): 23.2 s
Substance: YFP-Ubc9 (from UniProt P63279 1-158) (enzyme)
